Assay results: US20140088008A1 (Amgen, published 2014)

T1: myostatin (UniProt O14793 267-375, limits assumed)
T1 sequence (looked up): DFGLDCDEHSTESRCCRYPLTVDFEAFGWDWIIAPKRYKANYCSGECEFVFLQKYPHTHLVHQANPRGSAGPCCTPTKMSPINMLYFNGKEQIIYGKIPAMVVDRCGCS

T2: activin A (UniProt P08476 311-426)
T2 sequence (looked up): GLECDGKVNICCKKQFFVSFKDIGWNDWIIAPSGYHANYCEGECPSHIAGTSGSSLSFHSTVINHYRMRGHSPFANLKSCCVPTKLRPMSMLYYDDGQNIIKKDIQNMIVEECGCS

T3: GDF-11 (UniProt O95390 299-407)
T3 sequence (looked up): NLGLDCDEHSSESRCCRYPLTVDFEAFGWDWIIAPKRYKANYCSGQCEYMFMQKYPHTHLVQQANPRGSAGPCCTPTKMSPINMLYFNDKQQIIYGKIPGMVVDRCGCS


Tests used:
myostatin [1] = target: T1, myostatin; assay: cell-based or functional assay
activin A = target: T2, activin A; assay: cell-based or functional assay
GDF-11 = target: T3, GDF-11; assay: cell-based or functional assay
myostatin [2] = target: T1, myostatin; assay: BIAcore solution competition: soluble receptor titrated against 4 nM myostatin, free myostatin captured on immobilized human ActRIIB-ECD/Fc (R&D Systems) on a CM5 chip
Description: Blocking assays were carried out using immobilized human ActRIIB-ECD/Fc (R&D Systems, Minneapolis, Mn.) on a CM5 chip (Biacore, Inc., Piscataway, N.J.) in the presence and absence of each of the two soluble receptors ActRIIB-ECD/Fc and ActRIIB5/Fc using the BIAcore® assay system according to the manufacturer's instructions.
100% myostatin binding signal was determined in the absence of receptor in solution. Various concentrations of the soluble receptors were diluted in sample buffer and incubated with 4 nM myostatin before being injected over the receptor surface. Since only free myostatin molecules were able to bind to the chip, a decreased binding response with increasing concentration of the receptors indicated binding of the receptors to myostatin in solution. Plotting the binding signal vs. concentration of soluble receptor, ActRIIB-ECD/Fc and ActRIIB5/Fc were calculated to have an EC₅₀ of approximately 18 nM and 7 nM respectively.

Binder | myostatin-neutralizing activity IC50 (nM) vs. 4 nM myostatin; pMARE-luc C2C12 luciferase reporter (myostatin [1]) [nM] | activin A neutralizing activity IC50 (nM) vs. 20 nM activin; pMARE-luc C2C12 luciferase reporter (activin A) [nM] | GDF-11-neutralizing activity IC50 (nM) vs. 4 nM GDF-11; pMARE-luc C2C12 luciferase reporter (GDF-11) [nM] | EC50 (myostatin [2]) [nM]
huActRIIB5/Fc (Fc fusion, also called human activin type IIB5 receptor Fc fusion; not shown: human IgG1 Fc) SGRGEAETRECIYYNANWELERTNQSGLERCEGEQDKRLHCYASWRNSSGTIELVKKGCWLDDFNCYDRQECVATEENPQVYFCCCEGNFCNERFTHLPEAGGPEGPWASTTIPSGGPEATAAAGDQGSGALWLCLEGPAHEGGGGGGGG | 29.7 | 156 | 90.6 | ~7
huActRIIB-ECD/Fc (Fc fusion, not shown: human IgG1 Fc, fused directly (no linker)) SGRGEAETRECIYYNANWELERTNQSGLERCEGEQDKRLHCYASWRNSSGTIELVKKGCWLDDFNCYDRQECVATEENPQVYFCCCEGNFCNERFTHLPEAGGPEV | 51.1 | 340 | 89.9 | ~18
